Consider three molecules from US20240166753A1 (DRAGONFLY THERAPEUTICS, published 2024).

The target in experiment [1] is T1, murine NKG2D overexpressed on EL4 cells (EL4-mNKG2D) (mouse, UniProt O54709 1-232).
T1 construct: whole, on cells; also called EL4-mNKG2D cells
T1 sequence (looked up): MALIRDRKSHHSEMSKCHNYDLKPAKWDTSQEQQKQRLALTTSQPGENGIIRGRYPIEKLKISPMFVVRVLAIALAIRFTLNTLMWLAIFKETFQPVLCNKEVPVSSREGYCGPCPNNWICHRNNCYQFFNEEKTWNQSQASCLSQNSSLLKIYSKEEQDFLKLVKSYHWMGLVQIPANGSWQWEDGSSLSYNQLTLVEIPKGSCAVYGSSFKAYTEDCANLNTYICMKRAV
Description: flow cytometry, 60 ug/mL with four-fold dilutions, EL4-mNKG2D cells, goat anti-mouse PE.

For experiment [2], the target named is T2, Tyrp-1 on B16F10 melanoma cells (UniProt P07147 25-537, limits assumed).
T2 construct: whole, on cells; B16F10 is a mouse melanoma line; also called Tyrp-1-positive B16F10 melanoma cells
Description: flow cytometry, 60 ug/mL with four-fold dilutions, B16F10 tumor cells, goat anti-mouse PE.

Experiment [3] has as its target T3, CD33 expressed on MV4-11 human AML cells (human, UniProt P20138 18-364).
T3 construct: whole, on cells; also called cell-expressed CD33
Nature of the experiment: flow cytometry on MV4-11 cells.

Experiment [4] concerns the target T3, CD33 expressed on MV4-11 human AML cells. Description: flow cytometry on MV4-11 cells, MFI fold over background.

T3 sequence (P20138 18-364): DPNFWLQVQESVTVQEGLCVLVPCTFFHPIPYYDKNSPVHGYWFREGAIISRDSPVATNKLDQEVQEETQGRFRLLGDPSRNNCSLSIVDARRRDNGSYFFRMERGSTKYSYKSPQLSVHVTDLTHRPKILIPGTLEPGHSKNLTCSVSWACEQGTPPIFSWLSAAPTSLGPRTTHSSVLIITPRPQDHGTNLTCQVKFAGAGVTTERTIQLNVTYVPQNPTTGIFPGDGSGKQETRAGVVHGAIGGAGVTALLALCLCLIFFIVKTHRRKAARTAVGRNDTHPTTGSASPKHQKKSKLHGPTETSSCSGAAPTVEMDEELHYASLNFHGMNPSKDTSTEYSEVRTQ

B1: mcFAE-C26.99 TriNKET (bispecific antibody, mouse IgG2c)
heavy 1: QVQLQQWGAGLLKPSETLSLTCAVYGGSFSGYYWSWIRQPPGKGLEWIGEIDHSGSTNYNPSLKSRVTISVDTSKNQFSLKLSSVTAADTAVYYCARARGPWSFDPWGQGTLVTVSSAKTTAPSVYPLAPVCGGTTGSSVTLGCLVKGYFPEPVTLTWNSGSLSSGVHTFPALLQSGLYTLSSSVTVTSNTWPSQTITCNVAHPASSTKVDKKIEPRVPITQNPCPPLKECPPCAAPDLLGGPSVFIFPPKIKDVLMISLSPMVTCVVVDVSEDDPDVQISWFVNNVEVHTAQTQTHREDYNSTLRVVSALPIQHQDWMSGKEFKCKVNNRALPSPIEKTISKPRGPVRAPQVYVLPPPAEEMTKKEFSLTCMIKGFLPAEIAVDWTSNGRTEQNYKNTATVLDSDGSYFMYSRLRVQKSTWERGSLFACSVVHEGLHNHLTTKTISRSLGK
light 1: DIQMTQSPSTLSASVGDRVTITCRASQSISSWLAWYQQKPGKAPKLLIYKASSLESGVPSRFSGSGSGTEFTLTISSLQPDDFATYYCQQYGSFPITFGGGTKVEIKRADAAPTVSIFPPSSEQLTSGGASVVCFLNNFYPKDINVKWKIDGSERQNGVLNSWTDQDSKDSTYSMSSTLTLTKDEYERHNSYTCEATHKTSTSPIVKSFNRNEC
heavy 2: EVQLQQSGAELVRPGALVKLSCKTSGFNIKDYFLHWVRQRPDQGLEWIGWINPDNGNTVYDPKFQGTASLTADTSSNTVYLQLSGLTSEDTAVYFCTRRDYTYEKAALDYWGQGASVIVSSAKTTAPSVYPLAPVCGGTTGSSVTLGCLVKGYFPEPVTLTWNSGSLSSGVHTFPALLQSGLYTLSSSVTVTSNTWPSQTITCNVAHPASSTKVDKKIEPRVPITQNPCPPLKECPPCAAPDLLGGPSVFIFPPKIKDVLMISLSPMVTCVVVDVSEDDPDVQISWFVNNVEVHTAQTQTHREDYNSTLRVVSALPIQHQDWMSGKEFKCKVNNRALPSPIEKTISKPRGPVRAPQVYVLPPPAEEMTKKEFSLTCMITGFLPAEIAVDWTSNGRTEQNYKNTATVLDSDGSYLMYSKLTVQKSTWERGSLFACSVVHEGLHNHLTTKTISRSLGK
light 2: DIQMSQSPASLSASVGETVTITCRASGNIYNYLAWYQQKQGKSPHLLVYDAKTLADGVPSRFSGSGSGTQYSLKISSLQTEDSGNYYCQHFWSLPFTFGSGTKLEIKRADAAPTVSIFPPSSEQLTSGGASVVCFLNNFYPKDINVKWKIDGSERQNGVLNSWTDQDSKDSTYSMSSTLTLTKDEYERHNSYTCEATHKTSTSPIVKSFNRNEC
notes: Heterodimer of mC26 and TA99 with mouse IgG2c as the Fc; also called murine cFAE-C26.99 TriNKET; TA99 TriNKET
B1: the binding result in experiment [1] and in experiment [2] was “binds” throughout.

B2: CD33-TriNKET-C26 (ADI-28226 and a CD33-binding domain) (bispecific antibody, V domains shown)
VH 1: QVQLQQWGAGLLKPSETLSLTCAVYGGSFSGYYWSWIRQPPGKGLEWIGEIDHSGSTNYNPSLKSRVTISVDTSKNQFSLKLSSVTAADTAVYYCARARGPWSFDPWGQGTLVTVSS
VL 1: DIQMTQSPSTLSASVGDRVTITCRASQSISSWLAWYQQKPGKAPKLLIYKASSLESGVPSRFSGSGSGTEFTLTISSLQPDDFATYYCQQYGSFPITFGGGTKVEIK
VH 2: QVQLVQSGAEVKKPGASVKVSCKASGYTFTDYVVHWVRQAPGQGLEWMGYINPYNDGTKYNEKFKGRVTMTRDTSISTAYMELSRLRSDDTAVYYCARDYRYEVYGMDYWGQGTLVTVSS
VL 2: DIVLTQSPASLAVSPGQRATITCTASSSVNYIHWYQQKPGQPPKLLIYDTSKVASGVPARFSGSGSGTDFTLTINPVEANDTANYYCQQWRSYPLTFGQGTKLEIK
notes: also called C26-TriNKET-CD33
Take B2: the binding result in experiment [3] is “binds”.

B3: parental anti-CD33 monoclonal antibody (antibody, V domains shown)
VH: QVQLVQSGAEVKKPGASVKVSCKASGYTFTDYVVHWVRQAPGQGLEWMGYINPYNDGTKYNEKFKGRVTMTRDTSISTAYMELSRLRSDDTAVYYCARDYRYEVYGMDYWGQGTLVTVSS
VL: DIVLTQSPASLAVSPGQRATITCTASSSVNYIHWYQQKPGQPPKLLIYDTSKVASGVPARFSGSGSGTDFTLTINPVEANDTANYYCQQWRSYPLTFGQGTKLEIK
notes: also called parental monoclonal anti-CD33 antibody; parental anti-CD33 antibody
With B3, in experiment [4], the binding result is “binds”.
